The text below walks through data of paper PMC6258048 (Biochemical and biophysical research communications, 2014).

The labels stand for the following.
B2: Tcf3 (Transcription factor 3) DNA binding B-HLH domain (domain or fragment)
chain: MGHMVHRPWIQDEVLSLEEKDLRDRERRMANNARERVRVRDINEAFRELGRMCQLHLKSDKAQTKLLILQQAVQVILGLEQQVRERNLNPKAACGGRTRIVSAHNSENEL

Data set [1] addresses B2. The experiment in a line: native gel or EMSA. Background: A gel shift assay detects complexes by their altered migration in electrophoresis.
Data set [2] addresses T1, Tcf4 (Transcription factor 4) DNA binding B-HLH domain.
T1 chain: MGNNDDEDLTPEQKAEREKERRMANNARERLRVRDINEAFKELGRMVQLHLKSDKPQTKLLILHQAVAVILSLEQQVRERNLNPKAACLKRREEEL
The experiment in a line: native gel or EMSA.

In data set [3] the target is Tcf12 (Transcription factor 12) DNA binding B-HLH domain. The experiment in a line: native gel or EMSA.
The data set “CD thermal denaturation” deals with the molecule itself. The experiment in a line: CD thermal denaturation.

B1: Ascl1 (Achaete-scute homolog 1) DNA binding B-HLH domain (domain or fragment)
chain: MASGFGYSLPQQQPAAVARRNERERNRVKLVNLGFATLREHVPNGAANKKMSKVETLRSAVEYIRALQQLLDEHDAVSAAFQAGVLSPEL
As for B1, the binding result in data set [1], in data set [2] and in data set [3] was “binds” throughout.
In the case of B2, in the data set “CD thermal denaturation”, the binding result is recorded as “binds”.
